Data on 3 molecules can be found in patent US20240132599A1 (GAMMADELTA THERAPEUTICS, published 2024).

Assay [1] deals with T1, human EGFR, recombinant protein (human, UniProt P00533 25-645).
T1 construct: Bought protein; also called human EGFR antigen
The experiment in a line: method not stated for this control.

The target of a further assay is T2, EGFR on HT-29 cells (human, UniProt P00533).
T2 construct: full length, cell surface; also called EGFR+ colon cancer cell line HT-29; HT-29 tumour cell
The experiment in a line: flow cytometry on HT-29 cells, 20 min at 4 C, anti-human IgG secondary.

For assay [2], the target named is T3, Vδ1 TCR on human Vδ1-positive γδ T cells (human, UniProt A0A1B0GX56 22-115).
T3 construct: also called Vδ1 γδ T-cells; cell surface Vδ1 TCR
T3 sequence (A0A1B0GX56 22-115 limits assumed, stated change not applied): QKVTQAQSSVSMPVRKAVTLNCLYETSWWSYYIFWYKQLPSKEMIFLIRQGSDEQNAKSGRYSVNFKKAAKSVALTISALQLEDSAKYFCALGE
The experiment in a line: flow cytometry on skin-derived Vδ1+ cells, 20 min at 4 C, anti-human Fc secondary. For orientation: Flow cytometry measures light scatter and fluorescence of single cells or particles in a stream.
Method: Cells were washed and stained with an anti-human Fc secondary antibody (Jackson Immunoresearch) and a viability dye for dead cells (eFlour 780, Invitrogen) for 20 minutes at 4° C. The cells were washed in FACS buffer and resuspended in Cell Fix (BD sciences) before analysis on a MACSQuant Analyser 10 flow cytometer (Miltenyi).

A further assay concerns the target T4, EGFR on A431 cells (human, UniProt P00533 25-1210).
T4 construct: whole, on cells; also called EGFR-positive A431; EGFR+A431 target cells
The experiment in a line: flow cytometry on A431 cells, 4 C, anti-human IgG-APC secondary, median fluorescence.

The target in assay [3] is T3, Vδ1 TCR on human Vδ1-positive γδ T cells. The experiment in a line: flow cytometry on primary Vδ1 γδ T cells, 4 C, anti-human IgG-APC secondary, median fluorescence.
Method: (§1) Target cells were stained with varying concentrations of antibody, followed by a fluorescent anti-human IgG detection antibody. All incubation steps were performed at 4° C. and mAb binding was determined using flow cytometry to measure the median level of fluorescence. Logarithmic four parameter dose-response curves were fitted using GraphPad Prism 9.
(§2) Target cells were detached from tissue culture flask, resuspended in PBS and seeded at a final density of 100,000 cells per well in v-bottom 96-well plates. Cells underwent centrifugation and the cell pellets were resuspended in FcR blocking reagent according to the manufacturer's instructions, and incubated for 20 minutes at 4C prior to a further wash. Antibodies were diluted to 500 nM in PBS and serially diluted 1:10 in PBS to 50 μM, and added to the cells, followed by a 20-minute incubation at 4C. To determine the quantity of mAb bound to the cell surface, the cells were then stained with a murine anti-human IgG secondary antibody, conjugated to APC (dilution: 1:100) in addition to a viability dye. Following 20-minute incubation at 4C, the cells were washed twice, and fluorescence measured using the MACSQuant.
Assay [4] concerns the target T5, L1 (DV1-GV4), recombinant soluble human Vδ1/Vγ4 γδ TCR heterodimer (human).
T5 construct: Biotinylated in the DELFIA ranking assay; also called human TRDV1; human Vδ1 antigen
The experiment in a line: SPR. A general note: SPR reads the build-up and loss of mass on a sensor chip optically.

The target in assay [5] is T1, human EGFR, recombinant protein. The assay is described as follows: SPR.
For assay [6] the target is unchanged.
Assay [7] deals with T5, L1 (DV1-GV4), recombinant soluble human …. The experiment in a line: SPR. The source holds these as a separate data set.
The target of assay [8] is T6, cyno antigen DV1/GV77, recombinant cynomolgus Vδ1 γδ TCR heterodimer (cynomolgus monkey).
T6 construct: also called cyno TRDV1; Cyno DV1-77; not shown: Delta-chain CDR3/J and constant part, the GV77 gamma chain, and any tags
T6 sequence (delta, as listed by the source limits assumed): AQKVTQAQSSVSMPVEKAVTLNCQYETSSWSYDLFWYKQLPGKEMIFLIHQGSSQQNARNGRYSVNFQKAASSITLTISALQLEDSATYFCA
The experiment in a line: SPR.

Where two headings read alike, the source gives them in different places.

T5 sequence (main, as listed by the source): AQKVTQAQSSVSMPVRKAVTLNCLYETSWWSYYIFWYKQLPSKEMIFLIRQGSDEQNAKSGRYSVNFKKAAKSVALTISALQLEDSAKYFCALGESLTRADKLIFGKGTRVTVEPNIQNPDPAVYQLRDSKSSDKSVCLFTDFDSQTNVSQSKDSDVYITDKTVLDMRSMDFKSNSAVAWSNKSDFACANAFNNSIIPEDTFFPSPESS
Method for EGFR on A431 cells: as §1, §2
Method for EGFR on HT-29 cells: After washing, cells were incubated for a further 20 minutes with anti-human IgG secondary antibodies (Jackson Immunoresearch) and live/dead stain (eFluor 780, Invitrogen) before washing and fixing using CellFix. The amount of antibody bound to each cell type was determined using flow cytometry (MACSQuant Analyser 10, Miltenyi Biotech).

B1: D1.3xFS1-67 control (bispecific antibody, V domains shown)
VH: QVQLQESGPGLVRPSQTLSLTCTVSGSTFSGYGVNWVRQPPGRGLEWIGMIWGDGNTDYNSALKSRVTMLVDTSKNQFSLRLSSVTAADTAVYYCARERDYRLDYWGQGSLVTVSS
VL: DIQMTQSPSSLSASVGDRVTITCRASGNIHNYLAWYQQKPGKAPKLLIYYTTTLADGVPSRFSGSGSGTDYTFTISSLQPEDIATYYCQHFWSTPRTFGQGTKVEIKR
notes: Only one entry is named for the whole molecule; it may hold heavy and light chains together; also called D1.3 FS1-67
As for B1, in assay [1], the Kd (commonly the equilibrium constant for the complex coming apart) came to 1 nM. The 50% effective concentration (EC50) (as a rule, the midpoint of the concentration-response curve) with EGFR on HT-29 cells came to 0.281 nM. For the same molecule, the “MFI (at saturation)” value in assay [2] is about 0.495 MFI. Further, the EC50 (read off the curve) – broadly, the concentration at which the effect is half-maximal – with EGFR on A431 cells is about 8 nM. Moreover, in assay [3], the binding result was “no binding (tested: 500 nM)”.

B2: ADT1-4-2/ADT3-5 (bispecific antibody)
heavy: EVQLQQSGPGLVKPSQTLSLTCAISGDSVSSKSAAWNWIRQSPSRGLEWLGRTYYRSKWSTDYAASVKSRITINPDTSKNQLSLQLNSVTPEDTAVYYCARTWVGYVDRWGQGTLVTVSSASTKGPSVFPLAPSSKSTSGGTAALGCLVKDYFPEPVTVSWNSGALTSGVHTFPAVLQSSGLYSLSSVVTVPSSSLGTQTYICNVNHKPSNTKVDKKVEPKSCDKTHTCPPCPAPELAGAPSVFLFPPKPKDTLMISRTPEVTCVVVDVSHEDPEVKFNWYVDGVEVHNAKTKPREEQYNSTYRVVSVLTVLHQDWLNGKEYKCKVSNKALPAPIEKTISKAKGQPREPQVYTLPPSRDELTKNQVSLTCLVKGFYPSDIAVEWESTYGPENNYKTTPPVLDSDGSFFLYSKLTVSYWRWYKGNVFSCSVMHEALHNHYTQKSLSLSPG
light: DIQMTQSPPALSASVGDRVTITCRASQDINDWLAWYQHKPGKAPKLLIYDASSLESGVPLRFSGSGSGTEFTLTISSLQPDDFATYYCQQKYSAPQVTFGQGTRLEIKRTVAAPSVFIFPPSDEQLKSGTASVVCLLNNFYPREAKVQWKVDNALQSGNSQESVTEQDSKDSTYSLSSTLTLSKADYEKHKVYACEVTHQGLSSPVTKSFNRGEC
notes: mAb2; also called ADT1-4-2xLEE1
Take B2: the Kd worked out at 0.883 nM in assay [4], 142 nM in [5] and 140 nM in [6].

B3: ADT1-4-8 (antibody, IgG1, V domains shown)
VH: EVQLQQSGPGLVKPSQTLSLTCAISGDSVSSKSAAWNWIRQSPSRGLEWLGRTYYRSKWSTDYAASVKSRITINPDTSKNQLSLQLNSVTPEDTAVYYCARSWVGYVDVWGQGTLVTVSS
VL: DIQMTQSPPALSASVGDRVTITCRASQDINDWLAWYQHKPGKAPKLLIYDASSLESGVPLRFSGSGSGTEFTLTISSLQPDDFATYYCQQKYSAPQVTFGQGTRLEIK
notes: IgG1
Take B3: the dissociation constant Kd in assay [7] worked out at 0.541 nM; in assay [8], 15.1 nM.
